The text below walks through data of patent US20200207847A1 (SINGAPORE HEALTH SERVICES PTE, published 2020).

To fix the notation:
T1: human IL-11Rα, FLAG-tagged, expressed at the surface of transiently transfected cells (human, UniProt Q14626 23-422)
T1 construct: whole, on cells; also called IL-11Rα expressing HEK cells; FLAG-tagged human IL-11Rα; not shown: tag
T1 sequence (looked up): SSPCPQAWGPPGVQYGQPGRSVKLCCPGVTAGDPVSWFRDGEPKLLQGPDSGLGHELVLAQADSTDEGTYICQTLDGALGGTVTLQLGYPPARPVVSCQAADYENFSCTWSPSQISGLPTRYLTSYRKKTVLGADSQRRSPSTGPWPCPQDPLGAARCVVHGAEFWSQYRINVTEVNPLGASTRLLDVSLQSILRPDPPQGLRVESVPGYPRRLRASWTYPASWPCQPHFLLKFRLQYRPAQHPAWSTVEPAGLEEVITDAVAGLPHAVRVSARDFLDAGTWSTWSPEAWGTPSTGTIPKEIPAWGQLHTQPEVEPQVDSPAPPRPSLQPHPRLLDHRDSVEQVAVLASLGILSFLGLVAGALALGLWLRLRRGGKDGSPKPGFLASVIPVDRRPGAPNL

B1: BSO-2E5 (antibody, V domains shown)
VH: QGQVQQSGAELVKPGASVKLSCKTSGFTFSTSYISWLKQKPRQSLEWIAWIYAGTGSTSYNQKFTGKAQLTVDTSSSTAYMQLSSLTSEDSAIYYCARHWAYWGQGTLVTVSA
VL: DIQMTQSPSSLSASLGERVSLTCRASQDIGSSLNWLQQEPDGTIKRLIYATASLESGVPKRFSGSRSGSDYSLTISRLESEDFVDYYCQQYASSPPTFGAGTKLELK
notes: Mouse monoclonal from hybridoma; also called RA3
B2: BSO-9A7 (antibody, V domains shown)
VH: QVQLQQPGAELVRPGSSVKLSCKASGYTFTNYWMHWLKQRPVQGLEWIGNIGPSDSKTHYNQKFKDKATLTVDKSSSTAYMQLNSLTSEDSAVYYCARGDYVLFTYWGQGTLVTVSA
VL: DIVLTQSPATLSMTPGDSVSLSCRASQSISNNLHWYQQKSHESPRLLIKYASQSISGIPSRFSGSGSGTDFTLSFNSVETEDFGVYFCQQRYSWPLTFGAGTKLEMK
notes: Mouse monoclonal from hybridoma; also called RA7
B3: BSO-4G3 (antibody, V domains shown)
VH: EVQLVESGGGLVKPGGSLKLSCAASGFTFSTYAMSWVRQTPEKRLEWVAAIKSNGGSTYYPDTVKDRFTISRDNAKNTLYLQMSSLRPEDTALYYCAHGLLFAHWGQGTLVTVSA
VL: DIVLTQSPASLAVSLGQSVTISCRASESVEYSGTTLMQWYQQKPGQPPKLLIYGASNVESGVPARFSGSGSGTDFSLNIHPVEEDDIAMYFCQQSRKVPYTFGSGTKLEIK
notes: Mouse monoclonal from hybridoma
B4: BSO-10D11 (antibody, V domains shown)
VH: QVQLQQSGTELVRPGTSVKMSCKAAGYTFTDYWIGWIKQRPGHGLEWIGDIFPGGDYTKCSERFKGKAKLTADTSSSTAYMQLSRLTSEDSAIYYCARRSTTIRFGAMDNWGQGTSVTVSS
VL: DIQMTQSPSSLSASLGERVSLTCRASQEISAYLSWLQQKPDGTIKRLIYSTSTLDSGVPKRFSGSRSGSDYSLTISSLESEDFADYFCLQYASSPLTFGAGTKLELK
notes: as for B3
B5: BSO-5E5 (antibody, V domains shown)
VH: DVQLQESGPGLVKPSQSLSLTCSVTGYSITSDYYWNWIRQFPGNKLEWMGYISYDSSNNYNPSLKNRISITRDTSKNQFFLKLNSVTTEDTATYYCASVGYYYVSDWYFDVWGTGTTVTVSS
VL: DIVMSQSPSSLPVSVGENVTMSCKSSQSLLYGSNQKNYLAWYQQKPGQSPKLLIYWASTRESGVPDRFTGSGSGTDFTLTISSVKAEDLAVYFCQQYYSYPRTFGGGTKLEIK
notes: Mouse monoclonal from hybridoma; also called RA5
B6: BSO-13B10 (antibody, V domains shown)
VH: QVQLKESGPGLVAPSQSLSITCTVSGFSLTSFSISWVRQPPGKGLEWLGGIWTGGGTNYNSALKPRLSISKDNSKSQVFLKMNSLQTDDTARYYCARNSNYPSGFAYWGQGTLVTVSA
VL: DIVMTQSQKFMSTSVGDRVSVTCKASQNVGSNVAWYQQKAGQSPKALIYSASYRYSGVPDRFTGSGSGTDFTLTISNVQSEDLAEYFCQQYNSYPLTFGAGTKLELK
notes: Mouse monoclonal from hybridoma; also called RA9
B7: BSO-7G9 (antibody, V domains shown)
VH: QVQLQQPGAELVKPGASVRLSCKASGYTFTSYWMHWVKQRPGQGLEWIGMIHPNSGYTNYNEKFKIKATLTVDKSSSTAHMQLSSLTSEDSAVYHCARGGYDGSYGPWFAYWGQGTLVTVSA
VL: DVVMTQTPLSLPVSLGDQASISCRSSQSLVHSNGNTYLHWYLQKPGQSPKLLIYKVSNRFSGVPDRFSGSGSGTDFTLKISRVEAEDLGVYFCSQSTHVPLTFGAGTKLELK
notes: as for B3

For one assay, the target named is T1, human IL-11Rα, FLAG-tagged, expressed …. As to the kind of experiment: same assay; percent relative to the positive control anti-FLAG antibody (100%). The procedure:
(§1) Briefly, labelled control cells (not expressing IL-11Rα at the cell surface) and unlabelled target cells expressing human IL-11Rα at their surface (following transient transfection with a plasmid encoding a FLAG-tagged human IL-11Rα) were mixed together with the cell culture supernatant (containing mouse-anti-IL-11Rα antibodies) and secondary detection antibodies (fluorescently-labelled anti-mouse IgG antibody).
(§2) The cells were then analysed using the HTFC Screening System (iQue) for the two labels (i.e. the cell label and the label on the secondary antibody). Detection of the secondary antibody on the unlabelled, IL-11Rα expressing cells indicated ability of the mouse-anti-IL-11Rα antibodies to bind to IL-11Rα. Detection of the secondary antibody on the labelled, control cells indicated cross-reactivity of the mouse-anti-IL-11Rα antibodies for target other than IL-11Rα.
As a positive control condition, labelled and unlabelled cells were incubated with a mouse anti-FLAG tag antibody as the primary antibody.
For B1, the “% positive” value is 30%.

Regarding B2, the “% positive” value came to 111%.

Take B3: the “% positive” value was 30%.

As for B4, the “% positive” value came to 42%.

For the molecule B5, the “% positive” value worked out at 28%.

As for B6, the “% positive” value was 35%.

Consider B7, for which the “% positive” value was found to be 59%.

For the next assay the target is unchanged. The assay can be described thus: flow cytometry of subcloned hybridoma supernatant on cells transfected with FLAG-tagged human IL-11Rα (sheet header: 'pB1-IL11-hum.FL', 'flow cytometry (Attunes)'; text: iQue mix-and-measure, anti-mouse IgG secondary). The procedure:
The mouse hybridomas producing anti-human IL-11Rα antibodies were sub-cloned, and cell culture supernatant from the subcloned hybridomas was analysed by “mix-and-measure” iQue assay for (i) ability to bind to human IL-11Rα, and (ii) cross reactivity for antigen other than IL-11Rα.
as §1, §2
A general note: In flow cytometry, cells or beads pass a laser one at a time.
Consider B1, for which the GMFI was 9540.

The molecule B2 displayed a GMFI of 34800.

B3 showed a GMFI of 9300.

B4 came in with a GMFI of 13100.

The molecule B5 registered a GMFI of 8780.

On to B6, for which the GMFI was determined as 10900.

On to B7, for which the GMFI came to 18600.
